Reference: publication doi:10.1101/2025.08.23.671895, “Detergent-free reconstitution of transmembrane proteins in giant liposomes of complex curvature by the Synthetic Membrane Transfer” (bioRxiv, 2025)

Molecular target: the molecule itself
Test: cryo-EM structure; maltoporin reconstituted in amphipol A8-35 (filaments); 2D classification and 3D reconstruction

B1: maltoporin (natural protein, UniProt P02943 26-446, looked up)
chain: VDFHGYARSGIGWTGSGGEQQCFQTTGAQSKYRLGNECETYAELKLGQEVWKEGDKSFYFDTNVAYSVAQQNDWEATDPAFREANVQGKNLIEWLPGSTIWAGKRFYQRHDVHMIDFYYWDISGPGAGLENIDVGFGKLSLAATRSSEAGGSSSFASNNIYDYTNETANDVFDVRLAQMEINPGGTLELGVDYGRANLRDNYRLVDGASKDGWLFTAEHTQSVLKGFNKFVVQYATDSMTSQGKGLSQGSGVAFDNEKFAYNINNNGHMLRILDHGAISMGDNWDMMYVGMYQDINWDNDNGTKWWTVGIRPMYKWTPIMSTVMEIGYDNVESQRTGDKNNQYKITLAQQWQAGDSIWSRPAIRVFATYAKWDEKWGYDYTGNADNNANFGKAVPADFNGGSFGRGDSDEWTFGAQMEIWW
notes: maltoporin, a beta-barrel transmembrane protein; One protein embedded in two polymers (SMA or amphipol A8-35); E. coli LamB is my surmise; also called maltoporin-SMA; maltoporin-Apol; source: purified using DDM-mediated extraction, detergent exchanged with SMA (bio-beads) or amphipol A8-35
  stoichiometry N: 3
